Data taken from patent US20220256794A1, “TERPENE SYNTHASES AND TRANSPORTERS” (The State of Israel, Ministry of Agriculture & Rural …, priority 2019, published 2022).

Test: Terpene synthase activity assay with FPP
Format: biochemical
Conditions: TPS expressed in E. coli; 10 μM FPP, overnight at 30° C., SPME GC-MS
Protocol: Putative terpene synthase genes were synthesized by the TWIST Co., and cloned into Novagen pET-28a(+) with a 6×His tag at its' N-terminus. The recombinant plasmid was then sequenced for authentication and transformed into BL21(DE3) pLysS and pLysE strains of E. coli (Agilent Technologies) for heterologous expression. An overnight culture was used to inoculate a 20-200 mL culture, induced with 0.1 mM IPTG at an OD 600 nm >0,8 for initiation of recombinant protein translation then incubated at 18° C. and 250 RPM overnight. The cells were collected by centrifugation and the recombinant enzymes were extracted either as a crude extract or purified on a Ni-NTA agarose resin as previously described [Gonda I. et al., The Plant Journal (2013) 61, 458-472]. […]
For solid-phase microextraction (SPME) analysis, a 57298-U SPME fiber assembly Divinylbenzene/Carboxen/Polydimethylsiloxane (DVB/CAR/PDMS, Supelco) needle size 23 ga, StableFlex, was used with an autosampler and analyzed by GC-MS as previously described [Davidovich-Rikanati R. et al., Nature Biotech (2007) 25:899-901; Davidovich-Rikanati R. et al., Plant J (2008) 56:228-238]. […]

B1: AG046-1: Cannabis terpene synthase gene product, amino acid SEQ ID NO: 36 (protein)
chain: MIITGVISSSTPIFKDQPAAIVRRSGNYKPTLWDAHFFQSLQVIYTEESYGKRINELKEDVRRILEKEAENPLVKLEQINDLSRLGISYHFEDQIKTILNLTFNNNNALWKKDNLYATALHFKLLRQYGFSPVSSEVFNAFKDEKKEFKESLSKDVKGMVCLYEASFYSFRGEPILDEARDFTTKHLKQYLMTRQSQFTRVDHHDDDDHDLVKLVEHALDLPLHWRLPRLEARWFIDMYAERNYDMNPTFLDFAKLDYNFVQSAYQKELKYISRWWSGSRLTERLPFARDRVVEIFYSAVALKYEAEFGFVRTVMTKIGLLLTLMDDIYDVYGTLDELQLFLEAIERWNINELDQLPDYMKILFVAFYNNVNEISYYVLKENGIHTIKYLKKALGDLCKCYMEEAKWFHSGHIPSLEEFIENGWKSITIPLCLIYHYCLITTSITEQDMEHLLQYPTILRVSGTVFRFIDDLGTSSDELERGDNPSSIQCYMREKGVSENESREHIWNLISEGWKEINEVKASNSPYSQVFIESAIDFVRGAMEMYHKGDGFGTNQDRYLKTKVVNMFFDPIPI
modifications: Terpene Synthase Gene Amino acid sequence of the 45 identified gene products
Sesquiterpenes produced with FPP: bisabolene
